Patent US20180155451A1 (published 2018)

T1: FcγRIIb extracellular domain with C-terminal His tag (human, UniProt P31994 43-217)
T1 construct: extracellular domain; also called FcgRIIb; 2b; not shown: His tag at the C terminus
T1 sequence (looked up): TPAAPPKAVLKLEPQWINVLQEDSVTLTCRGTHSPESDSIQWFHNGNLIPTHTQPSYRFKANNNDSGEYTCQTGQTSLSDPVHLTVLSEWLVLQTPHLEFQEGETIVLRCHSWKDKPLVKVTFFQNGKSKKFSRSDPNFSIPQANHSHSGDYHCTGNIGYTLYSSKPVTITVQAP

T2: FcγRIIa H (human, UniProt P12318 34-217)
T2 construct: extracellular domain; Soluble His-tagged extracellular domain expressed in FreeStyle293 cells; also called FcγRIIa type H; FcgRIIa H; not shown: His tag attached to the C terminus
T2 sequence (looked up): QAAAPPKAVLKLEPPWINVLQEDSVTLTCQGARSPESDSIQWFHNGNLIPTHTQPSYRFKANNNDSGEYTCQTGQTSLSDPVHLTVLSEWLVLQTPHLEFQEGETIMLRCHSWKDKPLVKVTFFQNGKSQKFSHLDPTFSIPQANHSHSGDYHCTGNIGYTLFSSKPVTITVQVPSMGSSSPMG

T3: FcγRIIb (human, UniProt P31994 43-217)
T3 construct: extracellular domain; Soluble His-tagged extracellular domain expressed in FreeStyle293 cells; also called FcgRIIb; 2b; not shown: His tag attached to the C terminus
T3 sequence (looked up): T1 sequence (looked up)

B1: GpH7-A5/GpH7-B3 variant Y296_20W/GpL16-k0 (heterodimerized antibody, He Ab) (antibody, human IgG1, kappa)
heavy 1: not shown
heavy 2: not shown
light: DIVMTQSPLSLPVTPGEPASISCQASESLVHSNRNTYLHWYLQKPGQSPQLLIYKVSNRFSGVPDRFSGSGSGTDFTLKISRVEAEDVGVYYCSQNTHVPPTFGQGTKVEIERTVAAPSVFIFPPSDEQLKSGTASVVCLLNNFYPREAKVQWKVDNALQSGNSQESVTEQDSKDSTYSLSSTLTLSKADYEKHKVYACEVTHQGLSSPVTKSFNRGEC
notes: Mutation in one H chain only; also called Y296_20W He Ab
B2: GpH7-A5/GpH7-B3 variant Y300_08L/GpL16-k0 (heterodimerized antibody, He Ab) (antibody, human IgG1, kappa)
heavy 1: not shown
heavy 2: not shown
light: B1 light
notes: Mutation in one H chain only; also called Y300_08L He Ab
B3: GpH7-A5/GpH7-B3 variant I336_02A/GpL16-k0 (antibody, human IgG1, kappa)
heavy 1: not shown
heavy 2: not shown
light: B1 light
notes: He Ab: the mutation stands only in the GpH7-B3-derived H chain; also called He Ab I336A
B4: GpH7-A5/GpH7-B3 variant L328_05P/GpL16-k0 (antibody, human IgG1, kappa)
heavy 1: not shown
heavy 2: not shown
light: B1 light
notes: Heterodimerized anti-glypican-3 IgG1; mutation in the GpH7-B3 H chain only; also called He Ab
B5: GpH7-A5/GpH7-B3 variant A327_03V/GpL16-k0 (antibody, human IgG1, kappa)
heavy 1: not shown
heavy 2: not shown
light: B1 light
notes: as for B4
B6: GpH7-A5/GpH7-B3 variant L328_07I/GpL16-k0 (antibody, human IgG1, kappa)
heavy 1: not shown
heavy 2: not shown
light: B1 light
notes: as for B4
B7: GpH7-A5/GpH7-B3 variant A327_18N/GpL16-k0 (antibody, human IgG1, kappa)
heavy 1: not shown
heavy 2: not shown
light: B1 light
notes: as for B4
B8: GpH7-A5/GpH7-B3 variant N325_20W/GpL16-k0 (antibody, human IgG1, kappa)
heavy 1: not shown
heavy 2: not shown
light: B1 light
notes: as for B4
B9: GpH7-A5/GpH7-B3 variant N325_14T/GpL16-k0 (antibody, human IgG1, kappa)
heavy 1: not shown
heavy 2: not shown
light: B1 light
notes: as for B4
B10: GpH7-A5/GpH7-B3 variant L328_06M/GpL16-k0 (antibody, human IgG1, kappa)
heavy 1: not shown
heavy 2: not shown
light: B1 light
notes: as for B4
B11: GpH7-A5/GpH7-B3 variant P331_03V/GpL16-k0 (antibody, human IgG1, kappa)
heavy 1: not shown
heavy 2: not shown
light: B1 light
notes: as for B4
B12: GpH7-A5/GpH7-B3 variant A327_09D/GpL16-k0 (antibody, human IgG1, kappa)
heavy 1: not shown
heavy 2: not shown
light: B1 light
notes: as for B4
B13: GpH7-A5/GpH7-B3 variant S324_05P/GpL16-k0 (antibody, human IgG1, kappa)
heavy 1: not shown
heavy 2: not shown
light: B1 light
notes: as for B4
B14: GpH7-A5/GpH7-B3 variant L328_03V/GpL16-k0 (antibody, human IgG1, kappa)
heavy 1: not shown
heavy 2: not shown
light: B1 light
notes: as for B4
B15: GpH7-A5/GpH7-B3 variant I332_10E/GpL16-k0 (antibody, human IgG1, kappa)
heavy 1: not shown
heavy 2: not shown
light: B1 light
notes: as for B4
B16: GpH7-A5/GpH7-B3 variant L328_20W/GpL16-k0 (antibody, human IgG1, kappa)
heavy 1: not shown
heavy 2: not shown
light: B1 light
notes: as for B4
B17: GpH7-A5/GpH7-B3 variant P331_16H/GpL16-k0 (antibody, human IgG1, kappa)
heavy 1: not shown
heavy 2: not shown
light: B1 light
notes: as for B4

target: T4, FcγRIIIa extracellular domain with C-terminal His tag (human, UniProt P08637 17-208); experiment: SPR (Biacore), antibody captured on antigen-peptide chip, FcγR analyte, relative binding
T4 construct: extracellular domain; also called 3a; FcgRIIIa
T4 sequence (P08637 17-208): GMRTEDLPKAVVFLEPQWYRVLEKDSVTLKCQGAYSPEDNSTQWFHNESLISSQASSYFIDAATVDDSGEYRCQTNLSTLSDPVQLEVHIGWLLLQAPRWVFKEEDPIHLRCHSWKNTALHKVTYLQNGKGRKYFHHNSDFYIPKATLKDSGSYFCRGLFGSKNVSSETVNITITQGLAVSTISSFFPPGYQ

Compared with B1, B2 is lower in He/Con_3a: 135 % of GpH7-A5/GpH7-B3/GpL16-k0 (=100) for the first, 105 % of GpH7-A5/GpH7-B3/GpL16-k0 (=100) for the second.

target: T1, FcγRIIb extracellular domain with …; experiment: SPR (Biacore), antibody captured via antigen peptide, FcγR as analyte; binding relative to GpH7-A5/GpH7-B3/GpL16-k0 = 100

With B3 the He/Con_2b was 84.9 relative (control = 100).

target: T5, FcγRIIIa extracellular domain with C-terminal His tag (human, UniProt P08637 17-208); experiment: as above
T5 construct: extracellular domain; also called FcgRIIIa; 3a; not shown: His tag at the C terminus
T5 sequence (P08637 17-208): as above

For B3, the He/Con_3a was 111 relative (control = 100).

target: T2, FcγRIIa H; experiment: SPR (Biacore); He/Con_2aH divided by He/Con_2b (FcγRIIb) of the same antibody
Experimental: The heterodimerized antibodies He Abs in which one of the H chains was introduced with an alteration were assayed for their binding activities to each activating FcγR and inhibitory FcγR according to the method described in Example 4. […] The activating FcγRs in FIGS. 26, 27, 28, and 29 are FcγRIa, FcγRIIa (R), FcγRIIa (H), and FcγRIIIa, respectively.
(§1) Analysis of interaction between objective antibody and the FcγR was carried out using Biacore T100 (GE Healthcare). HBS-EP+ (GE Healthcare) was used as the running buffer, and the measurement temperature was set to 25° C. Chips produced by immobilizing the antigen peptide by the amine coupling method to a Series S Sencor Chip CM5 (GE Healthcare), or alternatively, chips produced by allowing preliminarily biotinylated antigen peptides to interact with and immobilize onto a Series S Sensor Chip SA (certified) (GE Healthcare) were used. Antibodies of interest were captured onto an antigen peptide-immobilized chip, and allowed to interact to each FcγR diluted with running buffer. To regenerate and repeatedly use the chip, the antibodies captured on the chip were washed off by reacting 10 mM glycine-HCl, pH 1.5.

Compared with B4, B5 is lower in He_2aH/2b: 0.7 ratio for the first, 0.54 ratio for the second.

B6 and B7 are the same in He_2aH/2b: 0.59 ratio for the first, 0.59 ratio for the second.

Going from B8 to B9, the He_2aH/2b rises from 0.28 ratio to 0.68 ratio.

Compared with B10, B11 is lower in He_2aH/2b: 0.73 ratio for the first, 0.7 ratio for the second.

Going from B12 to B13, the He_2aH/2b falls from 0.61 ratio to 0.59 ratio.

Compared with B14, B15 is lower in He_2aH/2b: 0.78 ratio for the first, 0.76 ratio for the second.

First: B16
Second: B17
The He_2aH/2b of the first is lower: 0.48 ratio for the first, 0.73 ratio for the second.

target: T2, FcγRIIa H; experiment: SPR (Biacore), captured antibody, FcγR analyte; relative to GpH7-A5/GpH7-B3/GpL16-k0 = 100
Experimental: as §1
(§2) The FcγR-binding activity of each antibody was assessed primarily using as an indicator the FcγR-binding activity and dissociation constant for FcγR.

First: B4
Second: B5
The He/Con_2aH of the first is lower: 45.4 relative (control = 100) for the first, 51 relative (control = 100) for the second.

Going from B6 to B7, the He/Con_2aH falls from 93.9 relative (control = 100) to 66.8 relative (control = 100).

Compared with B8, B9 is higher in He/Con_2aH: 47.2 relative (control = 100) for the first, 62.7 relative (control = 100) for the second.

Compared with B10, B11 is lower in He/Con_2aH: 104 relative (control = 100) for the first, 82.5 relative (control = 100) for the second.

First: B12
Second: B13
The He/Con_2aH of the first is higher: 105 relative (control = 100) for the first, 55.5 relative (control = 100) for the second.

Compared with B14, B15 is higher in He/Con_2aH: 97.8 relative (control = 100) for the first, 108 relative (control = 100) for the second.

Compared with B16, B17 is lower in He/Con_2aH: 113 relative (control = 100) for the first, 84.5 relative (control = 100) for the second.

target: T3, FcγRIIb; experiment: as above
Experimental: as §1, §2

Compared with B4, B5 is higher in He/Con_2b: 65.1 relative (control = 100) for the first, 94.7 relative (control = 100) for the second.

Going from B6 to B7, the He/Con_2b falls from 160 relative (control = 100) to 113 relative (control = 100).

First: B8
Second: B9
The He/Con_2b of the first is higher: 169 relative (control = 100) for the first, 91.6 relative (control = 100) for the second.

Compared with B10, B11 is lower in He/Con_2b: 142 relative (control = 100) for the first, 119 relative (control = 100) for the second.

Compared with B12, B13 is lower in He/Con_2b: 172 relative (control = 100) for the first, 94.7 relative (control = 100) for the second.

Compared with B14, B15 is higher in He/Con_2b: 126 relative (control = 100) for the first, 142 relative (control = 100) for the second.

Compared with B16, B17 is lower in He/Con_2b: 235 relative (control = 100) for the first, 116 relative (control = 100) for the second.
